According to article PMC9482650, “Quantitative fragmentomics allow affinity mapping of interactomes” (Nature Communications, 2022):

T1: RADIL, Q96JH8
T1 sequence (Q96JH8 971-1071, limits assumed, looked up): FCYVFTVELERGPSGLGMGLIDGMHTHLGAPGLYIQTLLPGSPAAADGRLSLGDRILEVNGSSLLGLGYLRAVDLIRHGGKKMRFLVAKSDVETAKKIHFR

T2: GRIP1_7, Q9Y3R0
T2 sequence (Q9Y3R0 999-1096, limits assumed, looked up): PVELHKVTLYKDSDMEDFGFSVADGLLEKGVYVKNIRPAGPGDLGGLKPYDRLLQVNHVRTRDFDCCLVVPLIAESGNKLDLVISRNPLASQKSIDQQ

T3: NHERF3_1, Q5T2W1
T3 sequence (Q5T2W1 4-100, limits assumed, looked up): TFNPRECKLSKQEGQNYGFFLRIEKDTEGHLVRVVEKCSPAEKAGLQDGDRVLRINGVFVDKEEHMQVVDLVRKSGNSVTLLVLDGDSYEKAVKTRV

T4: APBA1_1, Q02410
T4 sequence (Q02410 651-752, limits assumed, looked up): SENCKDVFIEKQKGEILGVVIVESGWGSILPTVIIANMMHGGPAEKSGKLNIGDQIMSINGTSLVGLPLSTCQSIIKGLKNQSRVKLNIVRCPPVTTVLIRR

T5: MPDZ_10, O75970
T5 sequence (O75970 1624-1722, limits assumed, looked up): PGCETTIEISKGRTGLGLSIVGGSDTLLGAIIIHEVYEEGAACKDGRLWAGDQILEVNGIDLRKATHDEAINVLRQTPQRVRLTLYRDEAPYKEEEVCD

T6: PCLO, Q9Y6V0
T6 sequence (Q9Y6V0 4491-4600, limits assumed, looked up): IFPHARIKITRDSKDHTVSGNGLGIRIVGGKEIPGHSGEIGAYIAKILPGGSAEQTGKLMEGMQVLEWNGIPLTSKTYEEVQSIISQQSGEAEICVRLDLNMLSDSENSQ

T7: LIN7A, O14910
T7 sequence (O14910 103-200, limits assumed, looked up): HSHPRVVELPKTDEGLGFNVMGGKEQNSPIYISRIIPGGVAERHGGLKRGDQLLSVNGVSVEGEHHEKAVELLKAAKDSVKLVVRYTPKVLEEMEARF

T8: GRIP1_2, Q9Y3R0
T8 sequence (Q9Y3R0 145-248, limits assumed, looked up): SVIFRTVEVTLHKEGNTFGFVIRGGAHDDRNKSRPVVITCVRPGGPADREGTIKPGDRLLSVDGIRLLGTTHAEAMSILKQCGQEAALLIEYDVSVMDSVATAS

T9: TIAM2, Q8IVF5
T9 sequence (Q8IVF5 885-986, limits assumed, looked up): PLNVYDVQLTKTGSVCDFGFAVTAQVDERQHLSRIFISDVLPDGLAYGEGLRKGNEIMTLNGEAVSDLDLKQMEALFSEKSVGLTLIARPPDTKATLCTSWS

T10: GRIP1_3, Q9Y3R0
T10 sequence (Q9Y3R0 247-346, limits assumed, looked up): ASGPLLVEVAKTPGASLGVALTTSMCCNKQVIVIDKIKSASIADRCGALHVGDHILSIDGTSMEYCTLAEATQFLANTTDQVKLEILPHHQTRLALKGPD


Columns and labels:
Test in all cases: holdup assay
Set-up in all cases: key: below the threshold = too weak to quantify, mostly under pKd 3.1 to 4
Conditions in all cases: plain residues with an end cap or a label only (N-terminal biotin on a linker: ado-ado)
[1] = molecular target: T1, RADIL, Q96JH8
[2] = molecular target: T2, GRIP1_7, Q9Y3R0
[3] = molecular target: T3, NHERF3_1, Q5T2W1
[4] = molecular target: TJP1_2, Q07157
[5] = molecular target: MAGI2_3, Q86UL8
[6] = molecular target: T4, APBA1_1, Q02410
[7] = molecular target: SCRIB_3, Q14160
[8] = molecular target: TJP1_3, Q07157
[9] = molecular target: T5, MPDZ_10, O75970
[10] = molecular target: DLG1_3, Q12959
[11] = molecular target: Inadl_1, Q8NI35
[12] = molecular target: AHNAK1, Q09666
[13] = molecular target: T6, PCLO, Q9Y6V0
[14] = molecular target: LDB3, O75112
[15] = molecular target: GRID2IP_1, A4D2P6
[16] = molecular target: DLG2_3, Q15700
[17] = molecular target: T7, LIN7A, O14910
[18] = molecular target: NHERF4_4, Q86UT5
[19] = molecular target: DLG2_2, Q15700
[20] = molecular target: T8, GRIP1_2, Q9Y3R0
[21] = molecular target: GORASP2, Q9H8Y8
[22] = molecular target: GOPC, Q9HD26
[23] = molecular target: T9, TIAM2, Q8IVF5
[24] = molecular target: GIPC2, Q8TF65
[25] = molecular target: GRIP2_7, Q9C0E4
[26] = molecular target: MAGI2_2, Q86UL8
[27] = molecular target: DLG1_1, Q12959
[28] = molecular target: T10, GRIP1_3, Q9Y3R0

AHNAK1, Q09666, sequence (Q09666 4-100): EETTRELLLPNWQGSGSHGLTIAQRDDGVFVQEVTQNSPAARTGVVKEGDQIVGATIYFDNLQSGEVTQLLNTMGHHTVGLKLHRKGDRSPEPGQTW
GRIP2_7, Q9C0E4, sequence (Q9C0E4 934-1023): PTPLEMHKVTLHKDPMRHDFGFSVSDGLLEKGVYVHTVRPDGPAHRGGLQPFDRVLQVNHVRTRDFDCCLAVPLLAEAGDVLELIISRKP
TJP1_2, Q07157, sequence (Q07157 181-274): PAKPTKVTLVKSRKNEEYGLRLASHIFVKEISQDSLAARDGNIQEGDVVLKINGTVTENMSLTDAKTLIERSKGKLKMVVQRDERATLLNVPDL
Inadl_1, Q8NI35, sequence (Q8NI35 113-229): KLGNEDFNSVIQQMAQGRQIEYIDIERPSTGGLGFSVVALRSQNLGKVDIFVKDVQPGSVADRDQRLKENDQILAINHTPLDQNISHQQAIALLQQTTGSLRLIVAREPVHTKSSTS
SCRIB_3, Q14160, sequence (Q14160 999-1103): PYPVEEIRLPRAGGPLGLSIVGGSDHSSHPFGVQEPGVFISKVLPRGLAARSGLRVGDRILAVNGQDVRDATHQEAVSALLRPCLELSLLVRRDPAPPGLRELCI
TJP1_3, Q07157, sequence (Q07157 416-512): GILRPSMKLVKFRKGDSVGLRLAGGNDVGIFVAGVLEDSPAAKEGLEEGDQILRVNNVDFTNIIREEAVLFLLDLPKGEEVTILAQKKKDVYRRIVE
GIPC2, Q8TF65, sequence (Q8TF65 112-203): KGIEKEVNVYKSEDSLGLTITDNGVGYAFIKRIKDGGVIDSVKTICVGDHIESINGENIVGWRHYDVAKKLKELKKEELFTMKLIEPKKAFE
MAGI2_3, Q86UL8, sequence (Q86UL8 600-682): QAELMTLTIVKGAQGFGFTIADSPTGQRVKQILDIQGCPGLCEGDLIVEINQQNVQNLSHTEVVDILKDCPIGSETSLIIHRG
NHERF4_4, Q86UT5, sequence (Q86UT5 464-550): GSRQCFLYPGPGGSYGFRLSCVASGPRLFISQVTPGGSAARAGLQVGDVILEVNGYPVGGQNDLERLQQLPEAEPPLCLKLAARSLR
MAGI2_2, Q86UL8, sequence (Q86UL8 410-522): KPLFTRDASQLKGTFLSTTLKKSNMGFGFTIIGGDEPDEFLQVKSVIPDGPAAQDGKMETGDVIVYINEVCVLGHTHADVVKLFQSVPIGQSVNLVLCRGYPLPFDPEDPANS
LDB3, O75112, sequence (O75112 1-94): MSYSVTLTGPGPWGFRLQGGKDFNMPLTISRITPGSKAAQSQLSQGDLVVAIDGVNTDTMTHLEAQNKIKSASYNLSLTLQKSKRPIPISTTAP
GRID2IP_1, A4D2P6, sequence (A4D2P6 1-87): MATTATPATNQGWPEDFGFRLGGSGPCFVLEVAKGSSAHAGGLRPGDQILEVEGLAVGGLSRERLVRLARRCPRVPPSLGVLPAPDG

| Binder | pKd [1] | pKd [2] | pKd [3] | pKd [4] | pKd [5] | pKd [6] | pKd [7] | pKd [8] | pKd [9] | pKd [10] | pKd [11] | pKd [12] | pKd [13] | pKd [14] | pKd [15] | pKd [16] | pKd [17] | pKd [18] | pKd [19] | pKd [20] | also measured |
| --- | --- | --- | --- | --- | --- | --- | --- | --- | --- | --- | --- | --- | --- | --- | --- | --- | --- | --- | --- | --- | --- |
| NVYGIESVKI [GRIA2, P42262] | below the threshold | below the threshold | below the threshold | below the threshold | below the threshold | 3.52 | 3.56 | 3.62 | 3.57 | 3.93 | below the threshold | below the threshold | below the threshold | below the threshold | below the threshold | 3.81 | below the threshold | below the threshold | 3.5 | below the threshold | pKd [21]: 4.18; pKd [22]: below the threshold; pKd [23]: 4.21; pKd [24]: below the threshold; pKd [25]: below the threshold; pKd [26]: below the threshold; pKd [27]: below the threshold; pKd [28]: below the threshold |
| TISFTQTSQF [SLC1A1, P43005] | below the threshold | below the threshold | 4.73 | below the threshold | below the threshold | below the threshold | 3.72 | below the threshold | below the threshold | below the threshold | below the threshold | below the threshold | below the threshold | 3.58 | below the threshold | 3.71 | below the threshold | below the threshold | below the threshold | below the threshold | pKd [21]: below the threshold; pKd [22]: below the threshold; pKd [23]: 4.14; pKd [24]: below the threshold; pKd [25]: below the threshold; pKd [26]: below the threshold; pKd [27]: below the threshold; pKd [28]: below the threshold |
| GIKKITSTAL [RPS6KA3, P51812] | below the threshold | 3.56 | 5.64 | below the threshold | 3.51 | below the threshold | 5.06 | below the threshold | 3.59 | 3.99 | below the threshold | below the threshold | below the threshold | below the threshold | below the threshold | 3.63 | below the threshold | 3.99 | 3.88 | 3.5 | pKd [21]: below the threshold; pKd [22]: 4.5; pKd [23]: below the threshold; pKd [24]: below the threshold; pKd [25]: below the threshold; pKd [26]: 4.16; pKd [27]: 4.05; pKd [28]: below the threshold |
| PSHPRLQTHV [KIRREL2, Q6UWL6] | 3.73 | below the threshold | 4.57 | below the threshold | 3.67 | below the threshold | 4.26 | below the threshold | below the threshold | below the threshold | below the threshold | below the threshold | below the threshold | below the threshold | below the threshold | 4.26 | below the threshold | below the threshold | 4.28 | below the threshold | pKd [21]: 3.55; pKd [22]: below the threshold; pKd [23]: 3.73; pKd [24]: below the threshold; pKd [25]: below the threshold; pKd [26]: 4.82; pKd [27]: 4.24; pKd [28]: below the threshold |
